Experimental data as given in patent US20170307628A1.

Biological target: recombinant human IL-17A (human) (UniProt Q16552)
Assay: cell-based or functional assay

Sequence of recombinant human IL-17A (human) (Q16552 20-155 limits assumed): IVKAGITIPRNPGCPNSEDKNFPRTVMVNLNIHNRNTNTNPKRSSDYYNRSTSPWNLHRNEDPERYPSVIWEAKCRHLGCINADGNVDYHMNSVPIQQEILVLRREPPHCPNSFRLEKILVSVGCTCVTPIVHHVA

human IL-17A receptor-Fc chimera (from UniProt Q96F46 33-320) (Fc fusion)
inhibition of IL-17A induced IL-6 production in NHDF cells, IC50: 1 nM
